These results are taken from article PMC6915754, “Protein components of ribonucleoprotein granules from Drosophila germ cells oligomerize and show distinct spatial organization during germline development” (Scientific Reports, 2019).

Sequences and labels used below:
B1: Tud domain 6 (amino acids 1299-1484 of Tudor) (domain or fragment, Drosophila, UniProt P25823 1299-1484, looked up)
chain: SFICPYPVVLSSFQALVVYTAKPYRVYVQPQAIVPSMQTLLDNMYEHYKAKGDSLKKFDVGQICAVRSSDGNWYRARISGKDSNAACFEVFYIDYGNTEEIKRDDIKALDAKFYEHASGFAVEINLPIGRPSNDTKLKARISEILEEKVVTIKSIEVRRSHLIADVILENNQSVIDLLKAEKLVPG
notes: Tudor (Tud) protein, Drosophila, full length 2515 amino acids; Tud domain 6, amino acids 1299-1484; pET SUMO vector; source: E. coli BL21 (DE3), partially purified (Ni-NTA); not shown: His, N-terminal, kept
B2: Tud domain 1 (amino acids 1-217 of Tudor) (domain or fragment, Drosophila, UniProt P25823 1-217, looked up)
chain: MNGQARIALPSKVDLYITHVDHVGPYLKVYGHVNRDAASLISERIRNLLPTCFAIEPSWSVERQQALLIPGTFCIFKNINGPAPGDVEYRRIRVVSADLEGQSMRAEIDFVDFGYKRTVDSHDLMFPKQPKLLQNIPLHCFQYIVLGICSEWDQTDLAEVRRLVVNQIVKITVEPTQICDQKFASLRWKDFELNEFLVQQKQIGVSVDKQLMMDHCK
notes: Tudor (Tud) protein, Drosophila, full length 2515 amino acids; Tud domain 1, amino acids 1-217; pET SUMO vector; source: E. coli BL21 (DE3), partially purified (Ni-NTA); not shown: His, N-terminal, kept
B3: Tud domain 4 (amino acids 1002-1192 of Tudor) (domain or fragment, Drosophila, UniProt P25823 1002-1192, looked up)
chain: SLDKPYALQEMKTPSKEAASLSWWLSPFQFYIVPKSVSAKYDNIMRDMREFYRQKQHQPLQLKVGSTVVVRQRKDNAILRATVTACNHMMRKYRVFCVDTGSLITVTSEDIWQLEQRFADPPCMAHRCSFHSVVTNYDPLYIVDRMETFVPVNAKVDCEFVSKEKSNQGSNTSSTCSYTVNIFVNGASLRD
notes: Tudor (Tud) protein, Drosophila, full length 2515 amino acids; Tud domain 4, amino acids 1002-1192; pET SUMO vector; source: E. coli BL21 (DE3), partially purified (Ni-NTA); not shown: His, N-terminal, kept
B4: Tud domain 9 (amino acids 1976-2160 of Tudor) (domain or fragment, Drosophila, UniProt P25823 1976-2160, looked up)
chain: SLAVTTKAIITHVENTSRIYLQFSEKDSLMDIICEKLNGSKLQPKTEKAAVDDMCVVQFADDLEFYRSRILEVLEDDQYKVILIDYGNTTVVDKLYELPQEFTLIKPVAEICSMEPSAIFEKNKALTLTTFDALLDSCKGVVAVEFVNKSASPPVVRLTTKDKRSLKIYEHLQKLVQAELKLIQK
notes: Tudor (Tud) protein, Drosophila, full length 2515 amino acids; Tud domain 9, amino acids 1976-2160; pET SUMO vector; source: E. coli BL21 (DE3), partially purified (Ni-NTA); not shown: His, N-terminal, kept
B5: Tud domain 3 (amino acids 592-772 of Tudor) (domain or fragment, Drosophila, UniProt P25823 592-772, looked up)
chain: QLENDDAVEIRFIDSPSNFYVQKVANIGKFEQLMDEMFSYYNANQRVPDQLILGAPCIVKCDQEWYRAEILRVDDSVIVRHVDFGYEQNVKRHLIGHIAEKHLEMPRQAIKCCLKGFENSELSEDKITDQFEMLAEESNIRRRTFSVRIFRIEPDGLNVVNLLAKNLNVMKKLYKLSMPFE
notes: Tudor (Tud) protein, Drosophila, full length 2515 amino acids; Tud domain 3, amino acids 592-772; pET SUMO vector; source: E. coli BL21 (DE3), partially purified (Ni-NTA); not shown: His, N-terminal, kept
B6: Tud domain 11 (amino acids 2335-2515 of Tudor) (domain or fragment, Drosophila, UniProt P25823 2335-2515, looked up)
chain: STVTGVQKPLEAELHNCVVVQFDGPMSFYVQMESDVPALEQMTDKLLDAEQDLPAFSDLKEGALCVAQFPEDEVFYRAQIRKVLDDGKCEVHFIDFGNNAVTQQFRQLPEELAKPARYSRHCELDASTISKCDAALLQSFIDTRFSETFQVEILATKGTGTHVVRLFYQSKNISEKLQECQ
notes: Tudor (Tud) protein, Drosophila, full length 2515 amino acids; Tud domain 11, amino acids 2335-2515; pET SUMO vector; source: E. coli BL21 (DE3), partially purified (Ni-NTA); not shown: His, N-terminal, kept
B7: methylated Aubergine (sDMA-Aub) (natural protein, Drosophila, UniProt O76922 1-866, looked up)
chain: MNLPPNPVIARGRGRGRKPNNVEANRGFAPSLGQKSDPSHSEGNQASGGNGGGGDAQVGPSIEKSSLSAVQMHKSEGDPRGSVRGRRLITDLVYSRPPGMTSKKGVVGTHITVQANYFKVLKRPNWTIYQYRVDFTPDVEATRLRRSFLYEHKGILGGYIFDGTNMFCINQFKAVQDSPYVLELVTKSRAGENIEIKIKAVGSVQSTDAEQFQVLNLILRRAMEGLDLKLVSRYYYDPQAKINLENFRMQLWPGYQTSIRQHENDILLCSEICHKVMRTETLYNILSDAIRDSDDYQSTFKRAVMGMVILTDYNNKTYRIDDVDFQSTPLCKFKTNDGEISYVDYYKKRYNIIIRDLKQPLVMSRPTDKNIRGGNDQAIMIIPELARATGMTDAMRADFRTLRAMSEHTRLNPDRRIERLRMFNKRLKSCKQSVETLKSWNIELDSALVEIPARVLPPEKILFGNQKIFVCDARADWTNEFRTCSMFKNVHINRWYVITPSRNLRETQEFVQMCIRTASSMKMNICNPIYEEIPDDRNGTYSQAIDNAAANDPQIVMVVMRSPNEEKYSCIKKRTCVDRPVPSQVVTLKVIAPRQQKPTGLMSIATKVVIQMNAKLMGAPWQVVIPLHGLMTVGFDVCHSPKNKNKSYGAFVATMDQKESFRYFSTVNEHIKGQELSEQMSVNMACALRSYQEQHRSLPERILFFRDGVGDGQLYQVVNSEVNTLKDRLDEIYKSAGKQEGCRMTFIIVSKRINSRYFTGHRNPVPGTVVDDVITLPERYDFFLVSQAVRIGTVSPTSYNVISDNMGLNADKLQMLSYKMTHMYYNYSGTIRVPAVCHYAHKLAFLVAESINRAPSAGLQNQLYFL
modifications: symmetrically dimethylated arginines (sDMAs), positions not given
notes: Aubergine (Aub), Piwi family protein, Drosophila; full-length; monomer ~100 kDa; Oligomers migrate at 500-700 kDa; also called sDMA-containing Aub; source: Sf9 or TriEx Sf9 cells, baculovirus, co-expressed with Dart5(Csul) and Vls; for SEC also Ni-NTA); not shown: 3xFLAG, N-terminal, kept
B8: unmethylated Aubergine (natural protein, Drosophila, UniProt O76922 1-866, looked up)
chain: MNLPPNPVIARGRGRGRKPNNVEANRGFAPSLGQKSDPSHSEGNQASGGNGGGGDAQVGPSIEKSSLSAVQMHKSEGDPRGSVRGRRLITDLVYSRPPGMTSKKGVVGTHITVQANYFKVLKRPNWTIYQYRVDFTPDVEATRLRRSFLYEHKGILGGYIFDGTNMFCINQFKAVQDSPYVLELVTKSRAGENIEIKIKAVGSVQSTDAEQFQVLNLILRRAMEGLDLKLVSRYYYDPQAKINLENFRMQLWPGYQTSIRQHENDILLCSEICHKVMRTETLYNILSDAIRDSDDYQSTFKRAVMGMVILTDYNNKTYRIDDVDFQSTPLCKFKTNDGEISYVDYYKKRYNIIIRDLKQPLVMSRPTDKNIRGGNDQAIMIIPELARATGMTDAMRADFRTLRAMSEHTRLNPDRRIERLRMFNKRLKSCKQSVETLKSWNIELDSALVEIPARVLPPEKILFGNQKIFVCDARADWTNEFRTCSMFKNVHINRWYVITPSRNLRETQEFVQMCIRTASSMKMNICNPIYEEIPDDRNGTYSQAIDNAAANDPQIVMVVMRSPNEEKYSCIKKRTCVDRPVPSQVVTLKVIAPRQQKPTGLMSIATKVVIQMNAKLMGAPWQVVIPLHGLMTVGFDVCHSPKNKNKSYGAFVATMDQKESFRYFSTVNEHIKGQELSEQMSVNMACALRSYQEQHRSLPERILFFRDGVGDGQLYQVVNSEVNTLKDRLDEIYKSAGKQEGCRMTFIIVSKRINSRYFTGHRNPVPGTVVDDVITLPERYDFFLVSQAVRIGTVSPTSYNVISDNMGLNADKLQMLSYKMTHMYYNYSGTIRVPAVCHYAHKLAFLVAESINRAPSAGLQNQLYFL
notes: Aubergine (Aub), Piwi family protein, Drosophila; full-length; without sDMAs; source: Sf9 cells lacking dart5/vls bacmid, baculovirus; not shown: 3xFLAG, N-terminal, kept

For one data set, the target named is T1, GFP-Aub (functional and methylated, from fly ovaries) (Drosophila, UniProt O76922 1-866, methylated (sDMAs), positions not given).
T1 construct: Aubergine (Aub), Piwi family protein, Drosophila; full-length; also called full-length Aub; source: purified from fly ovaries with anti-GFP beads
T1 sequence (looked up): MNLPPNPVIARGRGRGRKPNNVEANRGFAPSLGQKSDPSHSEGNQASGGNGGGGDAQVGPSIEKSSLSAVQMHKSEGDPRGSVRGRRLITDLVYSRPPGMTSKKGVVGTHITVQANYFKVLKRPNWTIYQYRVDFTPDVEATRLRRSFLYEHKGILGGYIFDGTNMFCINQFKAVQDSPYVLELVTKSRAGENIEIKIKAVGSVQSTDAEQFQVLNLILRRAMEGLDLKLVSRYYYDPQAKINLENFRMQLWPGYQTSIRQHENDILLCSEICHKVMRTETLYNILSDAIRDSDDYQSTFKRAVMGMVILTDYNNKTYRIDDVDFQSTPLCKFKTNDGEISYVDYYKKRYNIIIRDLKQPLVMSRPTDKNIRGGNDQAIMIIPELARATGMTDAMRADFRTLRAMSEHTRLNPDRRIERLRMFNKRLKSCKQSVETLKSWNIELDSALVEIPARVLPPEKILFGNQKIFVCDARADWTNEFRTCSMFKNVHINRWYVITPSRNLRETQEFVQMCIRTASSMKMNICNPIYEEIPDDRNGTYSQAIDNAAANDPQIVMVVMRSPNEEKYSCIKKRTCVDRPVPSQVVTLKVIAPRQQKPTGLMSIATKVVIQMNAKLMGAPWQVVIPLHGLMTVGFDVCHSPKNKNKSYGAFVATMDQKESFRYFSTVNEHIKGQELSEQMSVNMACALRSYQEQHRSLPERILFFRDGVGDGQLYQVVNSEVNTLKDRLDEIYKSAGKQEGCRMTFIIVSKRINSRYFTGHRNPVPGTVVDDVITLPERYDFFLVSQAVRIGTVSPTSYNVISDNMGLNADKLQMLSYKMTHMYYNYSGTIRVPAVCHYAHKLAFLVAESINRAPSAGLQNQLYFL
Briefly: pull-down; GFP-Aub from fly ovaries held on anti-GFP agarose beads; partially purified His-SUMO Tud domains added; 50 µl reactions, 4 °C, 30 min, binding buffer PBS + 0.05% IGEPAL CA-630; 4 washes; bound domains detected by anti-His-tag western blot. To be noted: both partners purified. (In general: Immunoblotting shows a protein as a band on a membrane.)
As for B1, the binding result is given as “binds”.

With B2, the binding result is “binds”.

As for B3, the binding result was “binds”.

Turning to B4, the binding result is given as “binds”.

In the case of B5, the binding result is “binds”.

As to B6, the binding result is “binds”.

The next data set deals with the molecule itself. As to the kind of experiment: native gel or EMSA; blue native PAGE (BN-PAGE), NativePAGE 3-12% Bis-Tris gels, of Aub purified by anti-c-Myc immunoaffinity, several concentrations; western blot with anti-Flag antibody.
Settings: not given
A general note: In EMSA bound probe runs differently from free probe, usually more slowly.
Take B7: the binding result is reported as “binds”.

Take B8: the binding result is “binds”.
